Assay results reported in patent publication US20210139892, “COMPOSITIONS AND METHODS FOR DELIVERY OF RNA TO A CELL” (The Regents of the University of California, published 2021).

Columns and labels:
[1] = target: T1, U1A-ppTG21 conjugate (U1A Cys variant disulfide-linked to ppTG21 endosomolytic peptide); number of ppTG21 not … (Homo sapiens, UniProt P09012 SEQ:2-98); assay: BLI; biotin-Cas9 RNP immobilised; 0.1-6 uM conjugate; binding persists ~900 s; details: sgRNA with three U1A stem-loop hairpins
T1 chain: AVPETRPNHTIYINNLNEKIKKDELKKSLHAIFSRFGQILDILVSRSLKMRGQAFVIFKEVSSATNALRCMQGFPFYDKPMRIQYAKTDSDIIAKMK
Source text: (§1) Biolayer interferometry (BLI) was used to assess the capacity of Cas9 RNPs containing sgRNA variants to bind U1A (or U1A-ppTG21 conjugates) as well as to assess the persistence of any binding events. These assays approximated the experimental design described in Richardson et al. (Nat Biotechnol. 2016 March; 34(3):339-44. doi: 10.1038/nbt.3481). These experiments relied on a Cas9 protein covalently, site-specifically labeled with a biotin moiety, allowing loading onto a BLI sensor bearing streptavidin. The instrument used was an Octet Red 384. The buffer used was 20 mM HEPES, pH 7.5, 100 mM KCl, 10% Glycerol, 0.01 mg/ml Heparin, 0.01% IGEPAL. The loading step of the experiment used Cas9 RNP at 20 nM in the wells. U1A wells contained 100 nM, 330 nM, or 1 μM U1A. […] In contrast to the noSL RNP experiment, the SLabub RNP was markedly bound by the U1A, and the binding persisted for the ˜2000 s (˜33 min) duration of the dissociation phase (FIG. 15A). The SLabub RNP experiment was repeated using U1A-ppTG21 conjugate in the wells at concentrations spanning 100 nM to 6 μM (FIG. 15B).

[2] = target: T2, U1A N-terminal RNA-binding domain (Y31H, Q36R; exact Cys variant used in BLI not stated) (Homo sapiens, UniProt P09012 SEQ:2-98); assay: BLI; biotin-Cas9 RNP immobilised; 0.1-1 uM U1A; binding persists ~2000 s; 20 mM HEPES pH 7.5, 100 mM KCl, 0.01 mg/ml heparin; details: tags: none; N-terminal Met removed in E. coli; sgRNA with three U1A stem-loop hairpins
T2 chain: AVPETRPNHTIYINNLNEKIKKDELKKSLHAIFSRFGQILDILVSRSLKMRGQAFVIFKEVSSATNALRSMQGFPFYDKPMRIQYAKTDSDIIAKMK
Source text: as §1

[3] = target: T2, U1A N-terminal RNA-binding domain …; assay: BLI; biotin-Cas9 noSL RNP immobilised; 0.1-1 uM U1A; no substantial binding; details: tags: none; N-terminal Met removed in E. coli; sgRNA scaffold, no U1A site
Source text: as §1

[4] = target: T1, U1A-ppTG21 conjugate (U1A Cys variant …); assay: BLI; biotin-RNA immobilised; 0.33-333 nM conjugate; binding persists ~2000 s; details: label: 5' biotin; hairpin
Source text: as §1
(§2) The concentrations of U1A-ppTG21 conjugate in the wells covered the range of 0.33-333 nM. Substantial binding was observed between the U1 stem loop and the U1A-ppTG21 conjugate, and this binding persisted for the ˜2000 s (˜33 min) of the dissociation phase (FIG. 15C).

[5] = target: T1, U1A-ppTG21 conjugate (U1A Cys variant …); assay: BLI; biotin-RNA immobilised; 0.33-333 nM conjugate; not substantially bound; details: label: 5' biotin; hairpin
Source text: as §1, §2

B1: SLabub sgRNA (EMX1) (ssRNA)
RNA: GUCACCUCCAAUGACUAGGGGUUUAAGAGCUAUGGAUCAUUGCACUCCGAUCCAUAGCAAGUUUAAAUAAGGCUAGUCCGUUAUCAACUUGUCGAGGCUAAGUCGCAUUGCACUCCGCGACAGCACAAGCCCGCUGCCAUUGCACUCCGGCAGCAGGGAACUCGUCAAGUGGCACCGAGUCGGUGCUUUUUUU
- binding result [1]: binds
- binding result [2]: binds

B2: noSL sgRNA (EMX1) (ssRNA)
RNA: GUCACCUCCAAUGACUAGGGGUUUAAGAGCUAUGCUGGAAACAGCAUAGCAAGUUUAAAUAAGGCUAGUCCGUUAUCAACUUGAAAAAGUGGCACCGAGUCGGUGCUUUUUUU
- binding result [3]: no binding

B3: U1 RNA stem loop 2 (ssRNA)
RNA: AAUCCAUUGCACUCCGGAUU
- binding result [4]: binds

B4: U2 RNA stem loop negative control (ssRNA)
RNA: AAUCCAUUCAUGUACCGGAUU
- binding result [5]: no binding
